Series [1] has as its target T1, human heat shock transcription factor Hsf1, wild type (human), Q00613.
T1 chain: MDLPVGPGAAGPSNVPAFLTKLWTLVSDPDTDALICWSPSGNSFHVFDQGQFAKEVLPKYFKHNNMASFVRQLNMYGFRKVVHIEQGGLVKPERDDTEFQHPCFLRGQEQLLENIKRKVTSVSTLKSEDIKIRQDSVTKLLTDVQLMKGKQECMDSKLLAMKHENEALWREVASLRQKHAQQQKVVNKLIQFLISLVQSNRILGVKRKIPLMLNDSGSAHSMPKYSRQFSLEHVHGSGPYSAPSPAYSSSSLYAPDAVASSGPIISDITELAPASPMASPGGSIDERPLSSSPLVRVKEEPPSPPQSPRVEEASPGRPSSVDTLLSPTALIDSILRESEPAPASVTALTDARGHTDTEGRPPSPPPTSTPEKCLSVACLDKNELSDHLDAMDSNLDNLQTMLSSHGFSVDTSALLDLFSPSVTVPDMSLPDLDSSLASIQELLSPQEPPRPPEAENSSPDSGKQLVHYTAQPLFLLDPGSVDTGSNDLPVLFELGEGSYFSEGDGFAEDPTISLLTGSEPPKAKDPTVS
The series is described as follows: SEC; S200 HiLoad 16/60 in Hsf1-buffer (25 mM Hepes pH 7.4, 150 mM NaCl, 10% glycerol, 2 mM DTT), 4°C, after Ni-IDA and cleavage of the SUMO tag. Particulars: remark: other sources report otherwise. On the technique in general: SEC sorts molecules by how far they enter the pores of the column.

Series [2] has as its target T1, human heat shock transcription factor …. The series is described as follows: HDX-MS; kinetics: 5 µM Hsf1 heat-shocked 10-1000 s at 35, 37, 39 or 42°C, then 30 s in D2O at 20°C; single exponential fits of the low-exchanging fraction. Particulars: remark: other sources report otherwise.
The target is the same in series [3]. The series is described as follows: native gel or EMSA; blue native polyacrylamide gel; monomeric Hsf1 after heat shock (42°C; pre-incubation at different temperatures for 10 min), Hsf1-buffer; also detected by immunoblot with Hsf1 antiserum. Particulars: remark: other sources report otherwise. Background: A gel shift assay detects complexes by their altered migration in electrophoresis.

Series [4] shares this target. As to the kind of experiment: HDX-MS + fluorescence polarisation; monomer to dimer; fit of the quadratic solution of the law of mass action to Tm values (10 min incubation, wild type) against Hsf1 concentration, assuming the fraction of dimer determines Tm; rough estimate. Particulars: remark: other sources report otherwise.
Series [5] concerns the molecule itself. As to the kind of experiment: HDX-MS; 5 µM Hsf1 or mutant in Hsf1-buffer pre-incubated 10 or 30 min at 20-42°C, diluted 1:20 into D2O buffer, 30 s at 20°C, quenched, online pepsin, LC-MS.

Results on 3 molecules are retold here after publication PMC4775227, “Molecular mechanism of thermosensory function of human heat shock transcription factor Hsf1” (eLife, 2016).

Substitutions are numbered along the chain they refer to. In names and notes the source's numbering stands. Several values for one entry are separate records, joined by “and”; a condition that tells them apart may be missing. Equal values may be shown once.

B1: human heat shock transcription factor Hsf1, wild type, Q00613 1-529 (natural protein)
chain: T1 chain
As usually defined, the stoichiometry N is the number of molecules, sites or subunits per partner or assembly. One may read the Kd as the free concentration of one partner at which half of the binding sites on the other are occupied at equilibrium, for simple one-to-one binding. As to B1, the stoichiometry N in series [1] was 2 and 3. In series [2], the rate of increase of the low-exchanging HR-A/B population (trimerization) at 35°C came to 0.0018 s⁻¹, the rate of increase of the low-exchanging HR-A/B population (trimerization) at 37°C stood at 0.0033 s⁻¹, the rate of increase of the low-exchanging HR-A/B population (trimerization) at 39°C was found to be 0.0094 s⁻¹ and the rate of increase of the low-exchanging HR-A/B population (trimerization) at 42°C worked out at 0.016 s⁻¹. The molecule also displayed a stoichiometry N in series [3] of 3. Further, in series [4], the Kd was 330 nM.

B2: human Hsf1-S307D (natural protein, UniProt Q00613 1-529, looked up)
chain: T1 chain with S307D
notes: heat shock transcription factor 1 (Hsf1), human, phosphomimetic variant S307D; Probably made and purified as the wild type (6xHis-SUMO fusion in E. coli, tag cleaved); also called phosphomimetic Hsf1 variant
Turning to B2, the binding result in series [5] is reported as “binds”.

B3: human Hsf1-S303D (natural protein, UniProt Q00613 1-529, looked up)
chain: T1 chain with S303D
notes: heat shock transcription factor 1 (Hsf1), human, phosphomimetic variant S303D; Probably made and purified as the wild type (6xHis-SUMO fusion in E. coli, tag cleaved); also called phosphomimetic Hsf1 variant
Consider B3, for which, in series [5], the binding result is on record as “binds”.
